Experimental data: article PMC6194859

Target: T1, PhoB~P (phosphorylated PhoB) (Escherichia coli) (UniProt P0AFJ5)
T1 sequence: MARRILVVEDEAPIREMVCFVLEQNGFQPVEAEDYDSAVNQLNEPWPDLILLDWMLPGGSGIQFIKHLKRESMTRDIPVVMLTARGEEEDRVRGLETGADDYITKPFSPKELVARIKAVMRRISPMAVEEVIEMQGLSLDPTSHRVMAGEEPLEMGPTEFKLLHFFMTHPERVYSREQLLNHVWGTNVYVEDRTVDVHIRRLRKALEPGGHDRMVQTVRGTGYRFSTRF
Assay: EMSA
Settings: phosphoramidate-phosphorylated PhoB, 50 mM Tris pH 7.6, 200 mM NaCl, 0.1 mg/ml BSA, 2 mM MgCl2, 1 mM DTT, 5% glycerol, ~0.1 uM DNA (mM in the source), 15 uM nonfluorescent competitor dsDNA, 30 min, 12% …

Sequence | Kd (Hill fit) [mM] | Kd (two-site per DNA binding model) [mM]
CTGCAGGAAGAAGGAAAACGCTGGTTTGACAATCTTGCCGCTAACGGAAAAATCGAAATGGCCTGGCAGGAAACTTTCTGGGCGCATGGCTTTGGCAAAGTCACCGATAAATTTGGCGTACCGTGGATGATTAATGTCGTCAAACAACAACCAACGCAATAACCCGCCGGGAGGCCCGCCCTCCCGCACTGTCATCGAATTCCCGTTAACTCTTCATCTGTTAGTCACTTTTAATTAACCAAATCGTCACAATAATCCGCCACGATGGAGCCACTTTTTTAGGGAGGCTGCATCATGCAAACGATTTGATCTAGAAATAATTTTGTTTAACTTTAAGAAGGAGATATACAAATGGTGAGC (double strand) [phnC promoter] | 0.0017 | 
GCCACGGAAATCAATAACCTGAAGATATGTGCGACGAGCTTTTCATAAATCTGTCATAAATCTGACGCATAATGACGTCGCATTAATGATCGCAACCTATTTATTACAACAGGGCTGATCTAGAAATAATTTTGTTTAACTTTAAGAAGGAGATATACAAATGGTGAGC (double strand) [phoB promoter] |  | 0.00025
